The record followed here is patent US20260115279A1 (VIB VZW, published 2026).

Substitutions are numbered along the chain they refer to. Numbers in names are those of the source.

Data set [1] deals with BamA, E. coli, untagged (endogenous, or co-expressed from pSlyB-BamA with its native signal peptide) (E. coli, UniProt P0A940 21-810). Description: cell-based or functional assay.
Data set [2] deals with the molecule itself. Description: α-SlyB Western of semi-native PAGE of whole cell lysate, with or without 1 mM EDTA.

B1: SlyB, native (endogenous) lipoprotein of E. coli (other)
chain: CVNNDTLSGDVYTASEAKQVQNVSYGTIVNVRPVQIQGGDDSNVIGAIGGAVLGGFLGNTVGGGTGRSLATAAGAVAGGVAGQGVQSAMNKTQGVELEIRKDDGNTIMVVQKQGNTRFSPGQRVVLASNGSQVTVSPR
modifications: N-terminal Cys18 carries the lipid anchor
Take B1: the “cellular thermal shift assay (CETSA) on cells treated with EDTA: melting temperature of BamA in ΔslyB mutant versus WT cells” value in data set [1] was approximately 4 °C.

B2: SlyB^PL, SlyB mutant I65A/V69A/F73A with disrupted outer leaflet phospholipid binding site (other)
chain: B1 chain with I48A, V52A, F56A
notes: whole, on cells; Tested in whole cell lysates and membrane fractions
For the protein B2, in data set [2], the binding result is listed as “no binding”.
